According to paper PMC2115667 (The Journal of Cell Biology, 1988):

Molecular target: the molecule itself
Assay: sedimentation velocity centrifugation on glycerol gradients

B1: cytotactin (intact, unreduced hexabrachion) (natural protein)
chain: ETGLNVTLPEDNQPVVFNHVYNIKLPVGSLCSVDLDTASGDADLKAEIEPVKNYEEHTVNEGNQIVFTHRINIPRRACGCAAAPDIKDLLSRLEELEGLVSSLREQCASGAGCCPNSQTAEGRLDTAPYCSGHGNYSTEICGCVCEPGWKGPNCSEPACPRNCLNRGLCVRGKCICEEGFTGEDCSQAACPSDCNDQGKCVDGVCVCFEGYTGPDCGEELCPHGCGIHGRCVGGRCVCHEGFTGEDCNEPLCPNNCHNRGRCVDNECVCDEGYTGEDCGELICPNDCFDRGRCINGTCFCEEGYTGEDCGELTCPNNCNGNGRCENGLCVCHEGFVGDDCSQKRCPKDCNNRGHCVDGRCVCHEGYLGEDCGELRCPNDCHNRGRCINGQCVCDEGFIGEDCGELRCPNDCHNRGRCVNGQCECHEGFIGEDCGELRCPNDCNSHGRCVNGQCVCDEGYTGEDCGELRCPNDCHNRGRCVEGRCVCDNGFMGEDCGELSCPNDCHQHGRCVDGRCVCHEGFTGEDCRERSCPNDCNNVGRCVEGRCVCEEGYMGIDCSDVSPPTELTVTNVTDKTVNLEWKHENLVNEYLVTYVPTSSGGLDLQFTVPGNQTSATIHELEPGVEYFIRVFAILKNKKSIPVSARVATYLPAPEGLKFKSVRETSVQVEWDPLSISFDGWELVFRNMQKKDDNGDITSSLKRPETSYMQPGLAPGQQYNVSLHIVKNNTRGPGLSRVITTKLDAPSQIEAKDVTDTTALITWSKPLAEIEGIELTYGPKDVPGDRTTIDLSEDENQYSIGNLRPHTEYEVTLISRRGDMESDPAKEVFVTDLDAPRNLKRVSQTDNSITLEWKNSHANIDNYRIKFAPISGGDHTELTVPKGNQATTRATLTGLRPGTEYGIGVTAVRQDRESAPATINAGTDLDNPKDLEVSDPTETTLSLRWRRPVAKFDRYRLTYVSPSGKKNEMEIPVDSTSFILRGLDAGTEYTISLVAEKGRHKSKPTTIKGSTEEEPELGNLSVSETGWDGFQLTWTAADGAYENFVIQVQQSDNPEETWNITVPGGQHSVNVTGLKANTPYNVTLYGVIRGYRTKPLYVETTTGAHPEVGELTVSDITPESFNLSWTTTNGDFDAFTIEIIDSNRLLEPMEFNISGNSRTAHISGLSPSTDFIVYLYGISHGFRTQAISAAATTEAEPEVDNLLVSDATPDGFRLSWTADDGVFDSFVLKIRDTKRKSDPLELIVPGHERTHDITGLKEGTEYEIELYGVSSGRRSQPINSVATTVVGSPKGISFSDITENSATVSWTPPRSRVDSYRVSYVPITGGTPNVVTVDGSKTRTKLVKLVPGVDYNVNIISVKGFEESEPISGILKTALDSPSGLVVMNITDSEALATWQPAIAAVDNYIVSYSSEDEPEVTQMVSGNTVEYDLNGLRPATEYTLRVHAVKDAQKSETLSTQFTTGLDAPKDLSATEVQSETAVITWRPPRAPVTDYLLTYESIDGRVKEVILDPETTSYTLTELSPSTQYTVKLQALSRSMRSKMIQTVFTTTGLLYPYPKDCSQALLNGEVTSGLYTIYLNGDRTQPLQVFCDMAEDGGGWIVFLRRQNGKEDFYRNWKNYVAGFGDPKDEFWIGLENLHKISSQGQYELRVDLRDRGETAYAVYDKFSVGDAKTRYRLRVDGYSGTAGDSMTYHNGRSFSTFDKDNDSAITNCALSYKGAFWYKNCHRVNLMGRYGDNNHSQGVNWFHWKGHEYSIQFAEMKLRPSSFRNLEGRRKRA
modifications: interchain disulfide bonds; HNK-1 carbohydrate epitope; radioiodinated (chloramine T, 125I) in the ultracentrifugation
stoichiometry N: ~6
